Source: publication PMC9746817, “Activated cholesterol metabolism is integral for innate macrophage responses by amplifying Myd88 signaling” (JCI Insight, 2022)

Tests used:
3H-cholesterol = 3H-cholesterol binding to recombinant GST-tagged protein; GST-Myd88 recovered and radioactivity measured; details: 3H-cholesterol 10 μM; n = 3; mean ± SD; parent: est. 3900; read off a plot
Myd88 CRAC domain = biological target: T1, Myd88 CRAC domain (Mus musculus, UniProt P22366); assay: NBD-cholesterol fluorescence binding assay; details: labelled compound; paper words the KD as that of cholesterol; NBD position (22- or 25-) not told
T1 construct: CRAC-A Tyr187, CRAC-B Tyr227
T1 sequence (P22366 whole entry, the tested form may be a part): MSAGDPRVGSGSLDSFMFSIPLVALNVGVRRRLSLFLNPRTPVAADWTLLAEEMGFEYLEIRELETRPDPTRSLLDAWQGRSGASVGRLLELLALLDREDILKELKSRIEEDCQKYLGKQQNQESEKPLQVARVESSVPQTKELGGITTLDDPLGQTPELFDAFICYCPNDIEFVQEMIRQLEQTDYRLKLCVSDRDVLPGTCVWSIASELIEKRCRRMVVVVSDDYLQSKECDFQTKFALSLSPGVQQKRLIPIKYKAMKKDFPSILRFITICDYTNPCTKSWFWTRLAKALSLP

| Molecule | response (3H-cholesterol) | Kd (Myd88 CRAC domain) |
| --- | --- | --- |
| GST-tagged mouse Myd88 (from UniProt P22366) Y227F | 1900 CPM |  |
| C[C@H](CNc1ccc([N+](=O)[O-])c2nonc12)[C@H]1CC[C@H]2[C@@H]3CC=C4C[C@@H](O)CC[C@]4(C)[C@H]3CC[C@]12C [NBD-cholesterol] |  | 14.1 µM |
